In paper PMC8026774:

Experiments:
MOR-1-PK (mouse) = MOR-1-PK (mouse) (UniProt P42866)
MOR-1O-PK (mouse) [1] = target: MOR-1O-PK (mouse)
MOR-1O-PK (mouse) [2] = test: radioligand binding
[3] = target: MOR-1O (untagged) (mouse); test: radioligand binding

Substance | [35S]GTPγS binding (G-protein activation), EC50 (MOR-1A-PK (mouse)) [nM] | [35S]GTPγS binding (G-protein activation), EC50 (MOR-TR-PK (mouse)) [nM] | [35S]GTPγS binding (G-protein activation), EC50 (MOR-1E-PK (mouse)) [nM] | [35S]GTPγS binding (G-protein activation), EC50 (MOR-1C-PK (mouse)) [nM] | [35S]GTPγS binding (G-protein activation), EC50 (MOR-1B1-PK (mouse)) [nM] | [35S]GTPγS binding (G-protein activation), EC50 (MOR-1-PK (mouse)) [nM] | [35S]GTPγS binding (G-protein activation), EC50 (MOR-1O-PK (mouse) [1]) [nM] | Ki (MOR-1O-PK (mouse) [2]) [nM] | Ki [3] [nM]
DAMGO (peptide) | 39 | 48 | 29 | 195 | 110 |  |  |  | 
[Met^5]enkephalin-Arg^6,Phe^7 (peptide) | 13 | 73 |  | 69 | 33 | 16 | 82 |  | 
endomorphin-1 (peptide) | 86 | 107 | 42 | 116 | 113 | 44 | 282 |  | 
endomorphin-2 (peptide) | 131 | 55 | 101 | 111 | 367 | 90 | 335 |  | 
β-endorphin (from UniProt P01189) (peptide) |  |  |  |  |  |  | 192 | 38.2 | 13.3
